# Values quoted from earlier work in publication PMC10256198 (European Heart Journal, 2023).
# Conditions: stated in the introduction, no reference given
substance,measurement,value
"Ghrelin: endogenous 28 amino acid anabolic peptide hormone, activated by acylation of amino-acid 3 (GSSFLSPEHQRVQQRKESKKPPAKLQPR; Ghrelin-28; UniProt Q9UBU3 24-51, looked up)",plasma half time,24 to 30 min
